Literature values in article PMC10935721.

Test system: Tyr32
Conditions: reduced (non-radical) X32

## α3Y (de novo three-helix bundle with Tyr32) (synthetic construct (de novo designed))
  pKa: 11.3 (±0.1)
